Laboratory results: patent publication US20240270828A1 (UAB RESEARCH FOUNDATION, published 2024)

Legend:
[1] = target: Spike of live SARS-CoV-2 WT virus (SARS-CoV-2, UniProt P0DTC2 14-1273); assay: cell-based or functional assay
[2] = target: Spike of SARS-CoV (Urbani) on infected Vero E6 cells and live virus (SARS-CoV, UniProt P59594 14-1255); assay: immunofluorescence on infected Vero E6 cells, 1 µg/ml
[3] = target: T1, Spike of MERS-CoV on infected Vero E6 cells and live virus (MERS-CoV, UniProt K9N5Q8 18-1353); assay: as above
T1 sequence: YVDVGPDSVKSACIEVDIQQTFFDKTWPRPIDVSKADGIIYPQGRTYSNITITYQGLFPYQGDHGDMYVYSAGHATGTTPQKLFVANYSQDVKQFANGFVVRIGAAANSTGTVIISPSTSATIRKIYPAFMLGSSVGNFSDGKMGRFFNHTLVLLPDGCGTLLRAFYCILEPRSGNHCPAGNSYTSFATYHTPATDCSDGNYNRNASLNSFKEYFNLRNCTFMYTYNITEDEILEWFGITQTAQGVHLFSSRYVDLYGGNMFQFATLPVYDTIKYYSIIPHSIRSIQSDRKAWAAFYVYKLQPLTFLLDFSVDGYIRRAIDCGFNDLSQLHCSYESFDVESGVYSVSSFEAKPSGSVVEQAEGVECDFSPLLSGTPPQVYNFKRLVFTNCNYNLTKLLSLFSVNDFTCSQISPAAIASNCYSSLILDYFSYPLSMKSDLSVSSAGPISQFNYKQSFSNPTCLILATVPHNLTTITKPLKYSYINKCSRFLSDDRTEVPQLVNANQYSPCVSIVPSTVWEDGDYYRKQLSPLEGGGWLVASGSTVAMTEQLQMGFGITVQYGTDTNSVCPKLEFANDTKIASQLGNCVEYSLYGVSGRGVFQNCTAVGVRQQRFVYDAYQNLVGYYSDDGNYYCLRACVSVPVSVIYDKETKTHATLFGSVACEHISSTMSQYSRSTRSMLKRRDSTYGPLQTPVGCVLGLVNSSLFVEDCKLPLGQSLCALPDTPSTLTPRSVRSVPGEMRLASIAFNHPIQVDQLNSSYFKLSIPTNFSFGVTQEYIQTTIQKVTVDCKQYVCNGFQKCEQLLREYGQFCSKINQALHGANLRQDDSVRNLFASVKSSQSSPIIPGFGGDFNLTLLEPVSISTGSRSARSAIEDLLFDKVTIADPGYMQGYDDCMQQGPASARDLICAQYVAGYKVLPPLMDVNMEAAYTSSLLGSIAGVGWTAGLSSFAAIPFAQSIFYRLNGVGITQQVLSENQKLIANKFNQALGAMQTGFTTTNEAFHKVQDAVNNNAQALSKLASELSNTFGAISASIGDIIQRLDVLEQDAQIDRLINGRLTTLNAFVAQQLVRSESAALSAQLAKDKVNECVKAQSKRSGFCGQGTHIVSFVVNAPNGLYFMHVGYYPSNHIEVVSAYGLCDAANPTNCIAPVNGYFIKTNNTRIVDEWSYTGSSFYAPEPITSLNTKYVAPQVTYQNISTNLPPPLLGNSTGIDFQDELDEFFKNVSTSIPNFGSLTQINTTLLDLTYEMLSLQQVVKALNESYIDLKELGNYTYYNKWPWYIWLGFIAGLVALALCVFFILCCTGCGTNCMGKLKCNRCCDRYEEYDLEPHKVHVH

[4] = target: T2, SARS-CoV-2 S2 (40590-V08B, Sino Biological) (SARS-CoV-2, UniProt P0DTC2 686-1213); assay: ELISA, hmAb at 10 and 1 ug/ml in duplicate; AUC
T2 construct: domain: S2

[5] = target: T3, SARS-CoV-2 S1 (40591-V08H3, Sino Biological) (SARS-CoV-2, UniProt P0DTC2 16-685); assay: ELISA, hmAb at 10 and 1 ug/ml in duplicate; AUC
T3 construct: domain: S1

[6] = target: T4, SARS-CoV-2 S1+S2 (40589-V08B1, Sino Biological) (SARS-CoV-2, UniProt P0DTC2 16-1213); assay: ELISA, hmAb at 10 and 1 ug/ml in duplicate; AUC
[7] = target: Spike of live SARS-CoV-2 WT virus (SARS-CoV-2, UniProt P0DTC2 14-1273); assay: cell-based or functional assay; remark: listed apart in the source
[8] = target: T2, SARS-CoV-2 S2 (40590-V08B, Sino …); assay: ELISA on coated protein, anti-human IgG-HRP; AUC of the OD
[9] = target: T3, SARS-CoV-2 S1 (40591-V08H3, Sino …); assay: as above
[10] = target: T4, SARS-CoV-2 S1+S2 (40589-V08B1, Sino …); assay: as above
[11] = target: T5, MERS-CoV S2 (Sino Biological, 40070-V08) (MERS-CoV, UniProt K9N5Q8 726-1296); assay: SPR, as far as told; target printed as MERS-CoV SH
T5 sequence: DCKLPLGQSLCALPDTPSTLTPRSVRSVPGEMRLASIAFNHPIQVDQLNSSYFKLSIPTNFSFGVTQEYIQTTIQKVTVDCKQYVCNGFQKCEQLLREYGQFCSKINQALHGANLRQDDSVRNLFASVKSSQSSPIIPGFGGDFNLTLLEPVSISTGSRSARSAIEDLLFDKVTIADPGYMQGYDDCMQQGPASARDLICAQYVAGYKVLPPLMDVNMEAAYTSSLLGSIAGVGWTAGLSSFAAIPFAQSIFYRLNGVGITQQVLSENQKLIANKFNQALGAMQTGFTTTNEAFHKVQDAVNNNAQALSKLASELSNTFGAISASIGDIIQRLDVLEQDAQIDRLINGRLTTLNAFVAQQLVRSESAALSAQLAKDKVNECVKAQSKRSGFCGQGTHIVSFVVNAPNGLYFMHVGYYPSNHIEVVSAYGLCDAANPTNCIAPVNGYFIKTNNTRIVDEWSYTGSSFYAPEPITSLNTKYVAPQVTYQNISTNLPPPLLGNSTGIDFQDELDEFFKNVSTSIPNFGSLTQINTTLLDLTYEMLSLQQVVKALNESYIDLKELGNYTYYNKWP

[12] = target: SARS-CoV-2 Wuhan-Hu-1 Spike protein (NR-53524 BEI Resources) (SARS-CoV-2, UniProt P0DTC2 16-1213); assay: cell-based or functional assay
[13] = target: T5, MERS-CoV S2 (Sino Biological, 40070-V08); assay: ELISA, mAb at 5, 0.5 and 0.05 ug/ml, without and with 8M urea; AUC heat map
[14] = target: T6, HKU1 S2 (40021-V08B, Sino Biological) (HCoV-HKU1, UniProt Q5MQD0 761-1300); assay: as above
T6 construct: domain: S2
T6 sequence: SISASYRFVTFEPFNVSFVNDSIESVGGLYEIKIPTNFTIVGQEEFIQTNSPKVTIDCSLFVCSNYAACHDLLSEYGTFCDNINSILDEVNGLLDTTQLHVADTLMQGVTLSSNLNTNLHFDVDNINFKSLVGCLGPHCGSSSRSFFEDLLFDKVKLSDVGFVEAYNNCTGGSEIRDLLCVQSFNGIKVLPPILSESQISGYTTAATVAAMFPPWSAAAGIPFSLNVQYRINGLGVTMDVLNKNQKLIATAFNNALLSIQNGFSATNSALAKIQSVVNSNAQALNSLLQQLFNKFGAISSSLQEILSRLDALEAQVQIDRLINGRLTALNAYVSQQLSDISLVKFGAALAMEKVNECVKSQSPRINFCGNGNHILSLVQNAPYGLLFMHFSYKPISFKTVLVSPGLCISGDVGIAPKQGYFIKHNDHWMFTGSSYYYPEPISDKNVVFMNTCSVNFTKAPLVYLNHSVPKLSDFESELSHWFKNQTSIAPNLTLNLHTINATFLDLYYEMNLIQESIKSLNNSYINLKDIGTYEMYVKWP

[15] = target: T7, OC43 S2 (40607-V08B1, Sino Biological) (HCoV-OC43, UniProt P36334 759-1297); assay: as above
T7 construct: domain: S2
T7 sequence: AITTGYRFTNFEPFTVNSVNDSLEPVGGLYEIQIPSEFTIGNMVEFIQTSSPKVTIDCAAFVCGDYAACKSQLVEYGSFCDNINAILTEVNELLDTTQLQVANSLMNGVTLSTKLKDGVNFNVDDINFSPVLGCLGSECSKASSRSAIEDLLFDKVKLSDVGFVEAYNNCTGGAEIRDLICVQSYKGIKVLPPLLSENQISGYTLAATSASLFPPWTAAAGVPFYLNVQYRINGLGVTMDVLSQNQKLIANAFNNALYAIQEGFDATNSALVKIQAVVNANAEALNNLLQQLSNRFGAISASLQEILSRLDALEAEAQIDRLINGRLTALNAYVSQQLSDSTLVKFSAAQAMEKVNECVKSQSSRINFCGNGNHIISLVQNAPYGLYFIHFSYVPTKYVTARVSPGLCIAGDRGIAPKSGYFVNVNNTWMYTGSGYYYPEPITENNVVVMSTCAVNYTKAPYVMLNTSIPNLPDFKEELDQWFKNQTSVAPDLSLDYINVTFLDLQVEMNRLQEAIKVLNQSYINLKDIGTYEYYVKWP

B1: CV3-25 (antibody, V domains shown)
VH: QVQLVESGAEVKKPGESLKISCKGSGYTFTRYWIGWVRQMPGKGLEWMGIIYPGDSDTRYSPSFQGHVTISADKSISTAYLQWNSLKASDTAMYYCARLPQYCSNGVCQRWFDPWGQGTLVTVSS
VL: EIVLTQSPSSVSASVGDRVTITCRASQGISSWLAWYQQKPGKAPKLLIYAASSLQSGVPSRFSGSGSGTDFTLTISSLQPEDFATYYCQQGNSFPYTFGQGTNLEIK
With B1 the “Neutralization IC50 (µg/ml), Live Virus WT” value [1] was 12.3 µg/mL.

B2: 1242C6 (antibody, V domains shown)
VH: EVQLVQSGAEVKKPGASVKVSCKASGFTFSDYYMHWVRQAPRQGLEWMGLINPSGSGTAYAQNFQGRVTLTRDTSTSTLYMEMGSLTSDDTAVYYCARMDSSGSYDHWGQGTLVTVSS
VL: DIVMTQSPGTLSLSPGDRATLSCRASQTIRISYLAWYQQKPGQAPRLLVYGPSIRATGIPDRFSASGSGTDFTLTISRLEPEDFAVYYCQHYGSSPPRYTFGQGTKLEIK
notes: Recombinant human IgG1
B2 was tested, and the binding result [2] was “binds”, the binding result [3] was “binds” and the “Binding AUC” value [4] was 26.7. For the same binder, the “Binding AUC” value [5] was 0.8, the binding result [5] was “no binding (tested: 10 ug/ml)” and the “Binding AUC” value [6] was 25.6. For the same binder, the “Neutralization IC50 (µg/ml), Live Virus WT” value [7] was 5.68 µg/mL, the “Binding AUC” value [8] was 26.7 and the “Binding AUC” value [9] was 0.8. For the same binder, the “Binding AUC” value [10] was 25.6.

B3: S2P6 (antibody, V domains shown)
VH: EVQLVQSGAEVKKPGASVKVSCKASGYTFTSQYMHWVRQAPGQGLEWIGIINPSGVHTSYAQKFQGRVTLTRDTSTSTLYMELSSLRSEDTAVYYCARGSPKGAFDYWGQGTLVTVSS
VL: not shown
Binder B3 has a Kd [11] of 8.5 nM.

B4: 1213H7 (antibody, V domains shown)
VH: QVQLQQSGPEVKKPGTSVKVSCRASGFTFSSSAMQWVRQARGQRLEWIGWIVVGSGNANYAQKFQERVTITRDLSTRTAYMELSSLRSEDTAVYYCAAPYCSGGTCLDGFDIWGQGTMVTVSS
VL: EIVLTQSPGTLSLSPGERATLSCRASQSVSRNYLGWYQQKPGQAPRLLIYGASSRATGIPDRFSGSGSGTDFTLTISRLEPEDFAVYYCQQYGSSPWTFGQGTKVEIK
With B4 the “ADCP activity, fold over isotype control” value [12] was ~8 fold, the binding result [13] was “no binding (tested: 5 ug/ml)” and the binding result [14] was “no binding (tested: 5 ug/ml)”. B4: no binding (tested: 5 ug/ml) [15].
